Patent publication US20250382363A1 (NUMAB THERAPEUTICS, published 2025)

Tests used:
[1] = target: T1, human a-Mesothelin (Acro Biosystems; MSN_H5223) (human, UniProt Q13421 296-580, limits assumed); assay: SPR, mesothelin immobilised, scFv analyte, 1:1 fit
T1 construct: Bought protein immobilised on the SPR chip; Printed as 'a-Mesothelin' but used as the antigen for the anti-MSLN scFvs; also called Human MSLN; MSLN
Description: The mutation variants were then injected at concentrations of 10 nM, 2 nM and 0.4 nM over the ligand-immobilized and reference spots. The wild type variants were used as a control, while an empty spot was used as reference.
After each cycle with analyte, the surface was regenerated with a 3M MgCl₂ solution, thereby allowing the next analyte cycle to have only free ligand available. Binding affinity KD was globally calculated by the Bruker SPR software based on the binding association (kₒₙ) and dissociation (Koff) rate, by fitting a 1:1 Langmuir model to the curves obtained by the cycles with the three different concentrations of the analyte.

[2] = target: pre-existing anti-drug antibodies (ADA) present in human sera; assay: pre-existing ADA ELISA, scFv coated, human sera unspiked vs spiked

T1 sequence (Q13421 other isoform, or with tags, fused parts or gaps limits assumed): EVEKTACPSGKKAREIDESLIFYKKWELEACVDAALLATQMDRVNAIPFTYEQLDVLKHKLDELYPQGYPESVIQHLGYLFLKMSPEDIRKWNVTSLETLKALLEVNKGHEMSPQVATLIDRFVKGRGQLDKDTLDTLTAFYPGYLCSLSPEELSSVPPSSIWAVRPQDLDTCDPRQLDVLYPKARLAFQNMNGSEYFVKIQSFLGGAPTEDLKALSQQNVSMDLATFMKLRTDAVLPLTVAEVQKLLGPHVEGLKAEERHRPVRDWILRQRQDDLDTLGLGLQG

Binder	Kd [1] [nM]	n-fold to wt [1] [fold]	Mean No of serum samples >30% inhibition (30% CCP) with SCP (serum samples) [2]	No of serum samples >30% inhibition (30% CCP) without SCP (serum samples) [2]
PRO2932 (scFv 54-21-H03-sc01_(L144A, S148N)) (scFv, PRO1922 variant; VH substitutions, AHo numbering; also called PRO1922 L144A-S148N) scFv: DIQMTQSPSSLSASVGDRVTITCQASESIYSSLAWYQQKPGKAPKLLIYLASTLASGVPSRFSGSGSGTDFTLTISSLQPEDFATYYCQSTDYTTSTHRNSFGTGTKVTVLGGGGGSGGGGSGGGGSGGGGSEVQLVESGGGLVQPGGSLRLSCAASGFSFSTTYYMCWVRQAPGKGLEWIGCTNTASSVRTYYATWAKGRFTISRDNSKNTVYLQMNSLRAEDTAVYYCARDMGFADYALNLWGQGTAVTVNS	2.1	1.2	1	5
PRO2937 (scFv 54-21-H03-sc01_(T101S, L144A, T146Q)) (scFv, PRO1922 variant; VH substitutions, AHo numbering; also called PRO1922 T101S-L144A-T146Q) scFv: DIQMTQSPSSLSASVGDRVTITCQASESIYSSLAWYQQKPGKAPKLLIYLASTLASGVPSRFSGSGSGTDFTLTISSLQPEDFATYYCQSTDYTTSTHRNSFGTGTKVTVLGGGGGSGGGGSGGGGSGGGGSEVQLVESGGGLVQPGGSLRLSCAASGFSFSTTYYMCWVRQAPGKGLEWIGCTNTASSVRTYYATWAKGRFTISRDNSKNTVYLQMNSLRAEDSAVYYCARDMGFADYALNLWGQGTAVQVSS	1.9	1.1	0	5
PRO2942 (scFv 54-21-H03-sc01_(T146R)) (scFv, PRO1922 variant; VH substitution, AHo numbering; also called PRO1922 T146R) scFv: DIQMTQSPSSLSASVGDRVTITCQASESIYSSLAWYQQKPGKAPKLLIYLASTLASGVPSRFSGSGSGTDFTLTISSLQPEDFATYYCQSTDYTTSTHRNSFGTGTKVTVLGGGGGSGGGGSGGGGSGGGGSEVQLVESGGGLVQPGGSLRLSCAASGFSFSTTYYMCWVRQAPGKGLEWIGCTNTASSVRTYYATWAKGRFTISRDNSKNTVYLQMNSLRAEDTAVYYCARDMGFADYALNLWGQGTLVRVSS	1.3	0.7	1	6
PRO2946 (scFv 54-21-H03-sc01_(T101S)) (scFv, PRO1922 variant; VH substitution, AHo numbering; also called PRO1922 T101S) scFv: DIQMTQSPSSLSASVGDRVTITCQASESIYSSLAWYQQKPGKAPKLLIYLASTLASGVPSRFSGSGSGTDFTLTISSLQPEDFATYYCQSTDYTTSTHRNSFGTGTKVTVLGGGGGSGGGGSGGGGSGGGGSEVQLVESGGGLVQPGGSLRLSCAASGFSFSTTYYMCWVRQAPGKGLEWIGCTNTASSVRTYYATWAKGRFTISRDNSKNTVYLQMNSLRAEDSAVYYCARDMGFADYALNLWGQGTLVTVSS	3.2	1.8	6	9
PRO2945 (scFv 54-21-H03-sc01_(T101R)) (scFv, PRO1922 variant; VH substitution, AHo numbering; also called PRO1922 T101R) scFv: DIQMTQSPSSLSASVGDRVTITCQASESIYSSLAWYQQKPGKAPKLLIYLASTLASGVPSRFSGSGSGTDFTLTISSLQPEDFATYYCQSTDYTTSTHRNSFGTGTKVTVLGGGGGSGGGGSGGGGSGGGGSEVQLVESGGGLVQPGGSLRLSCAASGFSFSTTYYMCWVRQAPGKGLEWIGCTNTASSVRTYYATWAKGRFTISRDNSKNTVYLQMNSLRAEDRAVYYCARDMGFADYALNLWGQGTLVTVSS	3	1.7	0	0
PRO2944 (scFv 54-21-H03-sc01_(T146Q)) (scFv, PRO1922 variant; VH substitution, AHo numbering; also called PRO1922 T146Q) scFv: DIQMTQSPSSLSASVGDRVTITCQASESIYSSLAWYQQKPGKAPKLLIYLASTLASGVPSRFSGSGSGTDFTLTISSLQPEDFATYYCQSTDYTTSTHRNSFGTGTKVTVLGGGGGSGGGGSGGGGSGGGGSEVQLVESGGGLVQPGGSLRLSCAASGFSFSTTYYMCWVRQAPGKGLEWIGCTNTASSVRTYYATWAKGRFTISRDNSKNTVYLQMNSLRAEDTAVYYCARDMGFADYALNLWGQGTLVQVSS	1.8	1	3	3
PRO2943 (scFv 54-21-H03-sc01_(T146E)) (scFv, PRO1922 variant; VH substitution, AHo numbering; also called PRO1922 T146E) scFv: DIQMTQSPSSLSASVGDRVTITCQASESIYSSLAWYQQKPGKAPKLLIYLASTLASGVPSRFSGSGSGTDFTLTISSLQPEDFATYYCQSTDYTTSTHRNSFGTGTKVTVLGGGGGSGGGGSGGGGSGGGGSEVQLVESGGGLVQPGGSLRLSCAASGFSFSTTYYMCWVRQAPGKGLEWIGCTNTASSVRTYYATWAKGRFTISRDNSKNTVYLQMNSLRAEDTAVYYCARDMGFADYALNLWGQGTLVEVSS	3.3	1.8	2	4
PRO2991 (scFv 54-21-H03-sc01_(T101A)) (scFv, PRO1922 variant; VH substitution, AHo numbering; also called PRO1922 T101A) scFv: DIQMTQSPSSLSASVGDRVTITCQASESIYSSLAWYQQKPGKAPKLLIYLASTLASGVPSRFSGSGSGTDFTLTISSLQPEDFATYYCQSTDYTTSTHRNSFGTGTKVTVLGGGGGSGGGGSGGGGSGGGGSEVQLVESGGGLVQPGGSLRLSCAASGFSFSTTYYMCWVRQAPGKGLEWIGCTNTASSVRTYYATWAKGRFTISRDNSKNTVYLQMNSLRAEDAAVYYCARDMGFADYALNLWGQGTLVTVSS	2.9	1.6	0	0
PRO2938 (scFv 54-21-H03-sc01_(L12A, T101S, L144A, T146Q)) (scFv, PRO1922 variant; VH substitutions, AHo numbering; also called PRO1922 L12A-T101S-L144A-T146Q) scFv: DIQMTQSPSSLSASVGDRVTITCQASESIYSSLAWYQQKPGKAPKLLIYLASTLASGVPSRFSGSGSGTDFTLTISSLQPEDFATYYCQSTDYTTSTHRNSFGTGTKVTVLGGGGGSGGGGSGGGGSGGGGSEVQLVESGGGAVQPGGSLRLSCAASGFSFSTTYYMCWVRQAPGKGLEWIGCTNTASSVRTYYATWAKGRFTISRDNSKNTVYLQMNSLRAEDSAVYYCARDMGFADYALNLWGQGTAVQVSS	1.6	0.9	0	0
PRO2992 (scFv 54-21-H03-sc01_(T146A)) (scFv, PRO1922 variant; VH substitution, AHo numbering; also called PRO1922 T146A) scFv: DIQMTQSPSSLSASVGDRVTITCQASESIYSSLAWYQQKPGKAPKLLIYLASTLASGVPSRFSGSGSGTDFTLTISSLQPEDFATYYCQSTDYTTSTHRNSFGTGTKVTVLGGGGGSGGGGSGGGGSGGGGSEVQLVESGGGLVQPGGSLRLSCAASGFSFSTTYYMCWVRQAPGKGLEWIGCTNTASSVRTYYATWAKGRFTISRDNSKNTVYLQMNSLRAEDTAVYYCARDMGFADYALNLWGQGTLVAVSS	1.7	0.9	3	4
PRO2993 (scFv 54-21-H03-sc01_(P15A)) (scFv, PRO1922 variant; VH substitution, AHo numbering; also called PRO1922 P15A) scFv: DIQMTQSPSSLSASVGDRVTITCQASESIYSSLAWYQQKPGKAPKLLIYLASTLASGVPSRFSGSGSGTDFTLTISSLQPEDFATYYCQSTDYTTSTHRNSFGTGTKVTVLGGGGGSGGGGSGGGGSGGGGSEVQLVESGGGLVQAGGSLRLSCAASGFSFSTTYYMCWVRQAPGKGLEWIGCTNTASSVRTYYATWAKGRFTISRDNSKNTVYLQMNSLRAEDTAVYYCARDMGFADYALNLWGQGTLVTVSS	0.82	0.5	2	3
PRO2941 (scFv 54-21-H03-sc01_(T146K)) (scFv, PRO1922 variant; VH substitution, AHo numbering; also called PRO1922 T146K) scFv: DIQMTQSPSSLSASVGDRVTITCQASESIYSSLAWYQQKPGKAPKLLIYLASTLASGVPSRFSGSGSGTDFTLTISSLQPEDFATYYCQSTDYTTSTHRNSFGTGTKVTVLGGGGGSGGGGSGGGGSGGGGSEVQLVESGGGLVQPGGSLRLSCAASGFSFSTTYYMCWVRQAPGKGLEWIGCTNTASSVRTYYATWAKGRFTISRDNSKNTVYLQMNSLRAEDTAVYYCARDMGFADYALNLWGQGTLVKVSS	1.9	1.1	0	0
PRO2990 (scFv 54-21-H03-sc01_(L12S, V103T, L144T)) (scFv, VH substitutions, AHo numbering; also called PRO1922-L12S-V103T-L144T) scFv: DIQMTQSPSSLSASVGDRVTITCQASESIYSSLAWYQQKPGKAPKLLIYLASTLASGVPSRFSGSGSGTDFTLTISSLQPEDFATYYCQSTDYTTSTHRNSFGTGTKVTVLGGGGGSGGGGSGGGGSGGGGSEVQLVESGGGSVQPGGSLRLSCAASGFSFSTTYYMCWVRQAPGKGLEWIGCTNTASSVRTYYATWAKGRFTISRDNSKNTVYLQMNSLRAEDTATYYCARDMGFADYALNLWGQGTTVTVSS	1.5	0.8	4	5
PRO2936 (scFv 54-21-H03-sc01_(T101S, T146Q)) (scFv, PRO1922 variant; VH substitutions, AHo numbering; also called PRO1922 T101S-T146Q) scFv: DIQMTQSPSSLSASVGDRVTITCQASESIYSSLAWYQQKPGKAPKLLIYLASTLASGVPSRFSGSGSGTDFTLTISSLQPEDFATYYCQSTDYTTSTHRNSFGTGTKVTVLGGGGGSGGGGSGGGGSGGGGSEVQLVESGGGLVQPGGSLRLSCAASGFSFSTTYYMCWVRQAPGKGLEWIGCTNTASSVRTYYATWAKGRFTISRDNSKNTVYLQMNSLRAEDSAVYYCARDMGFADYALNLWGQGTLVQVSS	0.66	0.4	1	4
